Series [1] deals with Cdc2-AF/CyclinB1 complex, P06493.
For series [2], the target named is Cdc2/cyclin A complex, P06493.
The target in series [3] is Cdc2-F15/CyclinB1 complex, P06493.
The target of series [4] is Cdk4/cyclin D1 complex, P11802.
The target of series [5] is Cdc2-A14/cyclin B1 complex, P06493.
The target of series [6] is Cdk2/cyclin E complex, P24941.
Series [7] has as its target wild-type Cdc2/cyclin B1 complex, P06493.
Series [8] has as its target Cdk2/cyclin A complex, P24941.
Series [9] addresses kinase-deficient Cdc2 mutant (K-) complexed with cyclin B1, P06493.

One protein from US6558918 can be followed below.

Chain of wild-type Cdc2/cyclin B1 complex, P06493 (P06493 whole entry, looked up, one chain of several): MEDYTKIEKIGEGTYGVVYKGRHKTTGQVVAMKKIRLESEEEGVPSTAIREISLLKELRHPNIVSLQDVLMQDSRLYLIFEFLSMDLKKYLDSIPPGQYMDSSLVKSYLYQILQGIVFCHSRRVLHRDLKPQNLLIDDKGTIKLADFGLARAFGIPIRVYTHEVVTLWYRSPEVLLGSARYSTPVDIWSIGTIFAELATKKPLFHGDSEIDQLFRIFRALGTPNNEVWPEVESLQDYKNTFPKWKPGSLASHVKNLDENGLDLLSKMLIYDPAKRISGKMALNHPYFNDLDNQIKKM
Chain of kinase-deficient Cdc2 mutant (K-) complexed with cyclin B1, P06493 (P06493 whole entry, looked up, change not shown, one chain of several): as the sequence (P06493 whole entry, looked up, one chain of several) above
Chain of Cdk4/cyclin D1 complex, P11802 (P11802 whole entry, looked up, one chain of several): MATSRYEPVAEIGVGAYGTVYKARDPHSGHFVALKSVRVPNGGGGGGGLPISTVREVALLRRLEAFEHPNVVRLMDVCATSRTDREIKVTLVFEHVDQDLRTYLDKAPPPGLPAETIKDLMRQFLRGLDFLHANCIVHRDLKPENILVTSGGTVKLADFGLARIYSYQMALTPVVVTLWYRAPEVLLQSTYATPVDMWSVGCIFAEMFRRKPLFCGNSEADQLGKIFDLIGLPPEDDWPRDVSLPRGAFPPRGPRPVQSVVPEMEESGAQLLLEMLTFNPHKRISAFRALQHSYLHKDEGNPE
Chain of Cdc2-F15/CyclinB1 complex, P06493 (P06493 whole entry, looked up, one chain of several): as the sequence (P06493 whole entry, looked up, one chain of several) above
Chain of Cdc2-A14/cyclin B1 complex, P06493 (P06493 whole entry, looked up, one chain of several): as above
Chain of Cdc2-AF/CyclinB1 complex, P06493 (P06493 whole entry, looked up, one chain of several): as above
Chain of monomeric Cdc2, P06493 (P06493 whole entry, looked up): as the sequence (P06493 whole entry, looked up, one chain of several) above
Chain of Cdc2/cyclin A complex, P06493 (P06493 whole entry, looked up, one chain of several): as above

B1: Cell Growth Regulatory Protein, truncated hybrid protein (residues 1-9 deleted) with N-terminal Glu-Glu tag, expressed in Sf9 cells (protein)
chain: MEYMPMEGTRPEMPMPTEGTPPPLSGTPIPVPAYFRHAEPGFSLKRPRGLSRSLPPPPPAKGSIPISRLFPPRTPGWHQLQPRRVSFRGEASETLQSPGYDPSRPESFFQQSFQRLSRLGHGSYGEVFKVRSKEDGRLYAVKRSMSPFRGPKDRARKLAEVGSHEKVGQHPCCVRLEQAWEEGGILYLQTELCGPSLQQHCEAWGASLPEAQVWGYLRDTLLALAHLHSQGLVHLDVKPANIFLGPRGRCKLGDFGLLVELGTAGAGEVQEGDPRYMAPELLQGSYGTAADVFSLGLTILEVACNMELPHGGEGWQQLRQGYLPPEFTAGLSSELRSVLVMMLEPDPKLRATAEALLALPVLRQPRAWGVLWCMAAEALSRGWALWQALLALLCWLWHGLAHPASWLQPLGPPATPPDSPPCSLLLDSSFSSNWDDDSLGPSLSPEAVLARTVGSTSTPRSRCTPRDALDLSDINSEPPRGSFPSFEPRNLLSMFEDTLDPT
As for B1, the “32P-labeling in a kinase reaction with affinity purified proteins, SDS-PAGE” value in series [1] is “the Cdc2-AF mutant was not phosphorylated by Cell Growth Regulatory Protein or Wee1”; in series [7], “both purified Cell Growth Regulatory Protein and Wee1 kinases were capable of phosphorylating wild-type Cdc2 as well as a kinase-deficient Cdc2 mutant (K-), each of which was complexed with cyclin B1”; in series [9] it was “both purified Cell Growth Regulatory Protein and Wee1 kinases were capable of phosphorylating wild-type Cdc2 as well as a kinase-deficient Cdc2 mutant (K-), each of which was complexed with cyclin B1”. In addition, the “32P-labeling in a kinase reaction with monomeric Cdc2 as substrate” value with monomeric Cdc2, P06493 is “Cell Growth Regulatory Protein did not phosphorylate monomeric Cdc2”. In addition, in series [2], the “histone H1 kinase activity in mixed Sf9 lysates” value was “greatly reduced histone H1 kinase activity compared to a mock-treated or Cdc2-AF control lysate”. Besides, the “histone H1 kinase activity (Cdc2 kinase activation) in mixed Sf9 lysates” value is “such lysates also inhibited both Cdc2-A14 and Cdc2-F15 activation” in [3]; “such lysates also inhibited both Cdc2-A14 and Cdc2-F15 activation; Cdc2-A14 lysates consistently retain some histone H1 kinase activity” in [5]; “a dramatic reduction in Cdc2 kinase activation was observed, similar to that observed for Wee1” in series [7]. Besides, the “32P-labeling in a kinase reaction with purified proteins” value in series [4] was “neither Cell Growth Regulatory Protein nor Wee1 phosphorylated the Cdk4 subunit”; in series [6], “Cell Growth Regulatory Protein failed to phosphorylate Cdk2 that was complexed with either cyclin A or cyclin E”; in [8], “Cell Growth Regulatory Protein failed to phosphorylate Cdk2 that was complexed with either cyclin A or cyclin E”. Besides, the “histone H1 kinase activity in mixed Sf9 lysates, wild-type Cdk2 against Cdk2-AF” value in series [6] is “an equivalent amount of histone H1 kinase activity was present in wild-type Cdk2 and Cdk2-AF lysates that had been mixed with either cyclin A or cyclin E lysates in the presence of Cell Growth Regulatory Protein”; in [8] it was “an equivalent amount of histone H1 kinase activity was present in wild-type Cdk2 and Cdk2-AF lysates that had been mixed with either cyclin A or cyclin E lysates in the presence of Cell Growth Regulatory Protein”. Further, in [7], the “32P-labeling in a kinase reaction with the Cdc2/cyclin B1 complex reconstituted from monomers” value is listed as “reconstitution of the Cdc2/cyclin B1 complex, by pre-incubating monomeric Cdc2 with monomeric cyclin B1, enabled Cell Growth Regulatory Protein to phosphorylate Cdc2”. The “immunoblotting of mixed lysates with phosphotyrosine antibodies” value in [7] was “showed that Cdc2 was phosphoryalted on Tyrosine 15 to some extent”. The “phosphoamino acid analysis of 32P-labeled Cdc2” value in series [9] is “phosphorylation occurred only on threonine residues”.
